Source: publication PMC7869511, “Computer-aided design of PVR mutants with enhanced binding affinity to TIGIT” (Cell Communication and Signaling : CCS, 2021)

B1: Fc-fused protein of human TIGIT [human] / wild type human PVR, full length, on CHO-K1 cells [human] (parent complex)
chain 1: MMTGTIETTGNISAEKGGSIILQCHLSSTTAQVTQVNWEQQDQLLAICNADLGWHISPSFKDRVAPGPGLGLTLQSLTVNDTGEYFCIYHTYPDGTYTGRIFLEVLESSVAEHGARFQIP
chain 2: WPPPGTGDVVVQAPTQVPGFLGDSVTLPCYLQVPNMEVTHVSQLTWARHGESGSMAVFHQTQGPSYSESKRLEFVAARLGAELRNASLRMFGLRVEDEGNYTCLFVTFPQGSRSVDIWLRVLAKPQNTAEVQKVQLTGEPVPMARCVSTGGRPPAQITWHSDLGGMPNTSQVPGFLSGTVTVTSLWILVPSSQVDGKNVTCKVEHESFEKPQLLTVNLTVYYPPEVSISGYDNNWYLGQNEATLTCDARSNPEPTGYNWSTTMGPLPPFAVAQGAQLLIRPVDKPINTTLICNVTNALGARQAELTVQVKEGPPSEHSGISRNAIIFLVLGILVFLILLGIGIYFYWSKCSREVLWHCHLCPSSTEHASASANGHVSYSAVSRENSSSQDPQTEGTR

Variants of: B1
Experiment: flow cytometry on cells; 120 nM hTIGIT-Fc; CHOK1 cells overexpressing hPVR; parent: 1; read off a plot

Variant | ratio to parent
chain 2 WPPPGTGDVVVQAPTQVPGFLGDSVTLPCYLQVPNMEVTHVSQLTWARHGESGSMAVFHQTQGPSYSESKRLEFVAARLGAELRNASLRMFGLRVEDEGNYTCLFVTFPQGQRSVDIWLRVLAKPQNTAEVQKVQLTGEPVPMARCVSTGGRPPAQITWHSDLGGMPNTSQVPGFLSGTVTVTSLWILVPSSQVDGKNVTCKVEHESFEKPQLLTVNLTVYYPPEVSISGYDNNWYLGQNEATLTCDARSNPEPTGYNWSTTMGPLPPFAVAQGAQLLIRPVDKPINTTLICNVTNALGARQAELTVQVKEGPPSEHSGISRNAIIFLVLGILVFLILLGIGIYFYWSKCSREVLWHCHLCPSSTEHASASANGHVSYSAVSRENSSSQDPQTEGTR [chain 2 S112Q] | ~1.4
chain 2 WPPPGTGDVVVQAPTQVPGFLGDSVTLPCYLQVPNMEVTHVSQLTWARHGESGSMAVFHQTQGPSYSESKRLEFVAARLGAELRNASLRMFGLRVEDEGNYTCLFVTFPQGRRSVDIWLRVLAKPQNTAEVQKVQLTGEPVPMARCVSTGGRPPAQITWHSDLGGMPNTSQVPGFLSGTVTVTSLWILVPSSQVDGKNVTCKVEHESFEKPQLLTVNLTVYYPPEVSISGYDNNWYLGQNEATLTCDARSNPEPTGYNWSTTMGPLPPFAVAQGAQLLIRPVDKPINTTLICNVTNALGARQAELTVQVKEGPPSEHSGISRNAIIFLVLGILVFLILLGIGIYFYWSKCSREVLWHCHLCPSSTEHASASANGHVSYSAVSRENSSSQDPQTEGTR [chain 2 S112R] | ~1
chain 2 WPPPGTGDVVVQAPTQVPGFLGDSVTLPCYLQVPNMEVTHVSQLTWARHGERGSMAVFHQTQGPSYSESKRLEFVAARLGAELRNASLRMFGLRVEDEGNYTCLFVTFPQGSRSVDIWLRVLAKPQNTAEVQKVQLTGEPVPMARCVSTGGRPPAQITWHSDLGGMPNTSQVPGFLSGTVTVTSLWILVPSSQVDGKNVTCKVEHESFEKPQLLTVNLTVYYPPEVSISGYDNNWYLGQNEATLTCDARSNPEPTGYNWSTTMGPLPPFAVAQGAQLLIRPVDKPINTTLICNVTNALGARQAELTVQVKEGPPSEHSGISRNAIIFLVLGILVFLILLGIGIYFYWSKCSREVLWHCHLCPSSTEHASASANGHVSYSAVSRENSSSQDPQTEGTR [chain 2 S52R] | ~1.1
chain 2 WPPPGTGDVVVQAPTQVPGFLGDSVTLPCYLQVPNMEVTHVSQLTWARHGEWGSMAVFHQTQGPSYSESKRLEFVAARLGAELRNASLRMFGLRVEDEGNYTCLFVTFPQGSRSVDIWLRVLAKPQNTAEVQKVQLTGEPVPMARCVSTGGRPPAQITWHSDLGGMPNTSQVPGFLSGTVTVTSLWILVPSSQVDGKNVTCKVEHESFEKPQLLTVNLTVYYPPEVSISGYDNNWYLGQNEATLTCDARSNPEPTGYNWSTTMGPLPPFAVAQGAQLLIRPVDKPINTTLICNVTNALGARQAELTVQVKEGPPSEHSGISRNAIIFLVLGILVFLILLGIGIYFYWSKCSREVLWHCHLCPSSTEHASASANGHVSYSAVSRENSSSQDPQTEGTR [chain 2 S52W] | ~1.2
chain 2 WPPPGTGDVVVQAPTQVPGFLGDSVTLPCYLQVPNMEVTHVSQLEWARHGESGSMAVFHQTQGPSYSESKRLEFVAARLGAELRNASLRMFGLRVEDEGNYTCLFVTFPQGSRSVDIWLRVLAKPQNTAEVQKVQLTGEPVPMARCVSTGGRPPAQITWHSDLGGMPNTSQVPGFLSGTVTVTSLWILVPSSQVDGKNVTCKVEHESFEKPQLLTVNLTVYYPPEVSISGYDNNWYLGQNEATLTCDARSNPEPTGYNWSTTMGPLPPFAVAQGAQLLIRPVDKPINTTLICNVTNALGARQAELTVQVKEGPPSEHSGISRNAIIFLVLGILVFLILLGIGIYFYWSKCSREVLWHCHLCPSSTEHASASANGHVSYSAVSRENSSSQDPQTEGTR [chain 2 T45E] | ~0.1
chain 2 WPPPGTGDVVVQAPTQVPGFLGDSVTLPCYLQVPNMEVTHVSQLTWARHGESGSMAVFHQTQGPSYWESKRLEFVAARLGAELRNASLRMFGLRVEDEGNYTCLFVTFPQGSRSVDIWLRVLAKPQNTAEVQKVQLTGEPVPMARCVSTGGRPPAQITWHSDLGGMPNTSQVPGFLSGTVTVTSLWILVPSSQVDGKNVTCKVEHESFEKPQLLTVNLTVYYPPEVSISGYDNNWYLGQNEATLTCDARSNPEPTGYNWSTTMGPLPPFAVAQGAQLLIRPVDKPINTTLICNVTNALGARQAELTVQVKEGPPSEHSGISRNAIIFLVLGILVFLILLGIGIYFYWSKCSREVLWHCHLCPSSTEHASASANGHVSYSAVSRENSSSQDPQTEGTR [chain 2 S67W] | ~0.82
chain 2 WPPPGTGDVVVQAPTQVPGFLGDSVTLPCYLQVPNMEVTHVSQLTWARHGESGSMAVFHQTQGPSYSESKRLEFVAARLGAELRNASLRMFGLRVEDEGNYTCLFVTFPQMSRSVDIWLRVLAKPQNTAEVQKVQLTGEPVPMARCVSTGGRPPAQITWHSDLGGMPNTSQVPGFLSGTVTVTSLWILVPSSQVDGKNVTCKVEHESFEKPQLLTVNLTVYYPPEVSISGYDNNWYLGQNEATLTCDARSNPEPTGYNWSTTMGPLPPFAVAQGAQLLIRPVDKPINTTLICNVTNALGARQAELTVQVKEGPPSEHSGISRNAIIFLVLGILVFLILLGIGIYFYWSKCSREVLWHCHLCPSSTEHASASANGHVSYSAVSRENSSSQDPQTEGTR [chain 2 G111M] | ~0.93
chain 2 WPPPGTGDVVVQAPTQVPGFLGDSVTLPCYLQVPNMEVTHVSQLTWARHGESGSMAVFHQTQGPSYSESKRLEFVAARLGAELRNASLRMFGLRVEDEGNYTCLFVTFPQVSRSVDIWLRVLAKPQNTAEVQKVQLTGEPVPMARCVSTGGRPPAQITWHSDLGGMPNTSQVPGFLSGTVTVTSLWILVPSSQVDGKNVTCKVEHESFEKPQLLTVNLTVYYPPEVSISGYDNNWYLGQNEATLTCDARSNPEPTGYNWSTTMGPLPPFAVAQGAQLLIRPVDKPINTTLICNVTNALGARQAELTVQVKEGPPSEHSGISRNAIIFLVLGILVFLILLGIGIYFYWSKCSREVLWHCHLCPSSTEHASASANGHVSYSAVSRENSSSQDPQTEGTR [chain 2 G111V] | ~1.6
chain 2 WPPPGTGDVVVQAPTQVPGFLGDSVTLPCYLQVPNMEVTHVSQLTWARHGESGSMAVFHQTQGPSYSESKRLEFVAARLGAELRNASLRMFGLRVEDEGNYTCLFVTFPQWSRSVDIWLRVLAKPQNTAEVQKVQLTGEPVPMARCVSTGGRPPAQITWHSDLGGMPNTSQVPGFLSGTVTVTSLWILVPSSQVDGKNVTCKVEHESFEKPQLLTVNLTVYYPPEVSISGYDNNWYLGQNEATLTCDARSNPEPTGYNWSTTMGPLPPFAVAQGAQLLIRPVDKPINTTLICNVTNALGARQAELTVQVKEGPPSEHSGISRNAIIFLVLGILVFLILLGIGIYFYWSKCSREVLWHCHLCPSSTEHASASANGHVSYSAVSRENSSSQDPQTEGTR [chain 2 G111W] | ~0.55
chain 2 WPPPGTGDVVVQAPTQVPGFLGDSVTLPCYLQVPNMEVTHVSQLTWARHGESGWMAVFHQTQGPSYSESKRLEFVAARLGAELRNASLRMFGLRVEDEGNYTCLFVTFPQGSRSVDIWLRVLAKPQNTAEVQKVQLTGEPVPMARCVSTGGRPPAQITWHSDLGGMPNTSQVPGFLSGTVTVTSLWILVPSSQVDGKNVTCKVEHESFEKPQLLTVNLTVYYPPEVSISGYDNNWYLGQNEATLTCDARSNPEPTGYNWSTTMGPLPPFAVAQGAQLLIRPVDKPINTTLICNVTNALGARQAELTVQVKEGPPSEHSGISRNAIIFLVLGILVFLILLGIGIYFYWSKCSREVLWHCHLCPSSTEHASASANGHVSYSAVSRENSSSQDPQTEGTR [chain 2 S54W] | ~1.2

Variants of: B1
Experiment: flow cytometry on cells; 120 nM hTIGIT-Fc; CHOK1 cells overexpressing hPVR; parent: 3.2e+03; read off a plot

Variant | response
chain 2 WPPPGTGDVVVQAPTQVPGFLGDSVTLPCYLQVPNMEVTHVSQLTWARHGESGSMAVFHQTQGPSYSESKRLEFVAARLGAELRNASLRMFGLRVEDEGNYTCLFVTFPQGQRSVDIWLRVLAKPQNTAEVQKVQLTGEPVPMARCVSTGGRPPAQITWHSDLGGMPNTSQVPGFLSGTVTVTSLWILVPSSQVDGKNVTCKVEHESFEKPQLLTVNLTVYYPPEVSISGYDNNWYLGQNEATLTCDARSNPEPTGYNWSTTMGPLPPFAVAQGAQLLIRPVDKPINTTLICNVTNALGARQAELTVQVKEGPPSEHSGISRNAIIFLVLGILVFLILLGIGIYFYWSKCSREVLWHCHLCPSSTEHASASANGHVSYSAVSRENSSSQDPQTEGTR [chain 2 S112Q] | ~4400 MFI
chain 2 WPPPGTGDVVVQAPTQVPGFLGDSVTLPCYLQVPNMEVTHVSQLTWARHGESGSMAVFHQTQGPSYSESKRLEFVAARLGAELRNASLRMFGLRVEDEGNYTCLFVTFPQVSRSVDIWLRVLAKPQNTAEVQKVQLTGEPVPMARCVSTGGRPPAQITWHSDLGGMPNTSQVPGFLSGTVTVTSLWILVPSSQVDGKNVTCKVEHESFEKPQLLTVNLTVYYPPEVSISGYDNNWYLGQNEATLTCDARSNPEPTGYNWSTTMGPLPPFAVAQGAQLLIRPVDKPINTTLICNVTNALGARQAELTVQVKEGPPSEHSGISRNAIIFLVLGILVFLILLGIGIYFYWSKCSREVLWHCHLCPSSTEHASASANGHVSYSAVSRENSSSQDPQTEGTR [chain 2 G111V] | ~4900 MFI

Variants of: B1
Experiment: as above
Remark: another data set of the same source

Variant | response
chain 2 WPPPGTGDVVVQAPTQVPGFLGDSVTLPCYLQVPNMEVTHVSQLEWARHGESGSMAVFHQTQGPSYSESKRLEFVAARLGAELRNASLRMFGLRVEDEGNYTCLFVTFPQGSRSVDIWLRVLAKPQNTAEVQKVQLTGEPVPMARCVSTGGRPPAQITWHSDLGGMPNTSQVPGFLSGTVTVTSLWILVPSSQVDGKNVTCKVEHESFEKPQLLTVNLTVYYPPEVSISGYDNNWYLGQNEATLTCDARSNPEPTGYNWSTTMGPLPPFAVAQGAQLLIRPVDKPINTTLICNVTNALGARQAELTVQVKEGPPSEHSGISRNAIIFLVLGILVFLILLGIGIYFYWSKCSREVLWHCHLCPSSTEHASASANGHVSYSAVSRENSSSQDPQTEGTR [chain 2 T45E] | ~100 MFI
chain 2 WPPPGTGDVVVQAPTQVPGFLGDSVTLPCYLQVPNMEVTHVSQLTWARHGESGSMAVFHQTQGPSYWESKRLEFVAARLGAELRNASLRMFGLRVEDEGNYTCLFVTFPQGSRSVDIWLRVLAKPQNTAEVQKVQLTGEPVPMARCVSTGGRPPAQITWHSDLGGMPNTSQVPGFLSGTVTVTSLWILVPSSQVDGKNVTCKVEHESFEKPQLLTVNLTVYYPPEVSISGYDNNWYLGQNEATLTCDARSNPEPTGYNWSTTMGPLPPFAVAQGAQLLIRPVDKPINTTLICNVTNALGARQAELTVQVKEGPPSEHSGISRNAIIFLVLGILVFLILLGIGIYFYWSKCSREVLWHCHLCPSSTEHASASANGHVSYSAVSRENSSSQDPQTEGTR [chain 2 S67W] | ~2600 MFI
chain 2 WPPPGTGDVVVQAPTQVPGFLGDSVTLPCYLQVPNMEVTHVSQLTWARHGESGSMAVFHQTQGPSYSESKRLEFVAARLGAELRNASLRMFGLRVEDEGNYTCLFVTFPQWSRSVDIWLRVLAKPQNTAEVQKVQLTGEPVPMARCVSTGGRPPAQITWHSDLGGMPNTSQVPGFLSGTVTVTSLWILVPSSQVDGKNVTCKVEHESFEKPQLLTVNLTVYYPPEVSISGYDNNWYLGQNEATLTCDARSNPEPTGYNWSTTMGPLPPFAVAQGAQLLIRPVDKPINTTLICNVTNALGARQAELTVQVKEGPPSEHSGISRNAIIFLVLGILVFLILLGIGIYFYWSKCSREVLWHCHLCPSSTEHASASANGHVSYSAVSRENSSSQDPQTEGTR [chain 2 G111W] | ~1700 MFI
